The target in test [1] is T1, EPO/EPOR interaction (EPOR-CD131-Fc and EPO) (Homo sapiens, UniProt P19235+P32927).
T1 construct: Chimeric Fc fusion proteins of the extracellular domains of human EPOR and human CD131; purchased Sino Biological CT010-H02H
T1 sequence (P19235 25-250 limits assumed): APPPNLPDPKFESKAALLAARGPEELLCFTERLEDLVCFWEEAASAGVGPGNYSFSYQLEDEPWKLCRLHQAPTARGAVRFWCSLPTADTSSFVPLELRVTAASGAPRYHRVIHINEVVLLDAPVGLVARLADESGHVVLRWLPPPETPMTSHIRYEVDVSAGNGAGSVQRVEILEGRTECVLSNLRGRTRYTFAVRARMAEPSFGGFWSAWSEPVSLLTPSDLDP
T1 sequence (P32927 17-443 limits assumed): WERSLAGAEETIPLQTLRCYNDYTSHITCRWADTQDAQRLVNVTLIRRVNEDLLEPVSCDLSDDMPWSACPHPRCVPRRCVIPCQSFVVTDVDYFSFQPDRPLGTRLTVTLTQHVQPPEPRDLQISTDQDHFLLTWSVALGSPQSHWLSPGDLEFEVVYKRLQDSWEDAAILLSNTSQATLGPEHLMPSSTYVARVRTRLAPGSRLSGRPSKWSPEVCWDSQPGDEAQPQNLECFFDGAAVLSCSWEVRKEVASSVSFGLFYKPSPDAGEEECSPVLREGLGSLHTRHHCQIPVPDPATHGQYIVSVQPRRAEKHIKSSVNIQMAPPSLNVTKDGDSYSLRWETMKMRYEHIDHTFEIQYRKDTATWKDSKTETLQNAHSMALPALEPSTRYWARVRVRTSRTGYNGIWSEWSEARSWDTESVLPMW
As to the kind of experiment: Octet blocking of the EPO/EPOR interaction by hybridoma supernatants. Type of test: binding. The settings on record: EPO 10 nM. (In general: In BLI a coated tip is dipped into the sample, and binding shifts an interference pattern.)

The next test concerns the target T2, 293T/EPOR cells (Homo sapiens, UniProt P19235).
T2 construct: expressed in transfected cells; host or cells: 293T cells expressing hEPOR
T2 sequence (P19235 25-508): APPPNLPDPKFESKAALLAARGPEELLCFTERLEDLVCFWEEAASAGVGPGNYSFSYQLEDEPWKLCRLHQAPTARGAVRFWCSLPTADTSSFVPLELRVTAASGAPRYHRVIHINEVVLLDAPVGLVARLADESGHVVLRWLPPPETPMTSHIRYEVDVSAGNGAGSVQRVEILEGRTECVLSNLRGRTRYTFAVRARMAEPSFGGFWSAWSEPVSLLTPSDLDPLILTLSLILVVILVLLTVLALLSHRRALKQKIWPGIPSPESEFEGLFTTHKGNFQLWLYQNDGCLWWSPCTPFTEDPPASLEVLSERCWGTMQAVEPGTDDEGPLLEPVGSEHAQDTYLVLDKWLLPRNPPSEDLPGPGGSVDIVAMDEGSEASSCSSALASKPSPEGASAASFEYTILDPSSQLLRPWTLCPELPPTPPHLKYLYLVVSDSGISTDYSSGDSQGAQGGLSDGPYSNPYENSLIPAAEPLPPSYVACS
Description: Staining of 293T/EPOR cells with purified antibodies (flow cytometry). Type of test: binding. On the procedure:
(§1) The purified antibodies were used to stain the human leukemia UT-7 cells, 293T/EPOR, 293T/CD131, and 293T/EPOR/CD131 cells to confirm antigen binding. The UT-7 cells were maintained in Roswell Park Memorial Institute (RPMI) with 10% Fetal Bovine Serum (FBS) and 5 ng/ml of recombinant human GM-CSF (Peprotech®, Cat #300-03). The 293T cells expressing hEPOR, hCD131, or both were maintained in Dulbecco's Modified Eagle Medium (DMEM) with 10% FBS. 1×10^6 cells/ml were incubated with purified hybridoma clones M2 and M41 at a 3-fold dilution series starting from 20 μg/ml for 30 minutes at 4° C. After washing, the cells were incubated with PE labeled secondary antibody and subjected to flowcytometric analysis. […] The binding profiles of the 293T/EPOR/CD131 cells are similar except the peak MFIs around 1500, half of that of the 293T/EPOR cells (FIG. 29B).
Background: Flow cytometry measures light scatter and fluorescence of single cells or particles in a stream.

In the next test the target is T3, 293T/EPOR/CD131 cells (Homo sapiens, UniProt P19235).
T3 construct: expressed in transfected cells; host or cells: 293T cells, lentiviral transduction
T3 sequence (P19235 25-508): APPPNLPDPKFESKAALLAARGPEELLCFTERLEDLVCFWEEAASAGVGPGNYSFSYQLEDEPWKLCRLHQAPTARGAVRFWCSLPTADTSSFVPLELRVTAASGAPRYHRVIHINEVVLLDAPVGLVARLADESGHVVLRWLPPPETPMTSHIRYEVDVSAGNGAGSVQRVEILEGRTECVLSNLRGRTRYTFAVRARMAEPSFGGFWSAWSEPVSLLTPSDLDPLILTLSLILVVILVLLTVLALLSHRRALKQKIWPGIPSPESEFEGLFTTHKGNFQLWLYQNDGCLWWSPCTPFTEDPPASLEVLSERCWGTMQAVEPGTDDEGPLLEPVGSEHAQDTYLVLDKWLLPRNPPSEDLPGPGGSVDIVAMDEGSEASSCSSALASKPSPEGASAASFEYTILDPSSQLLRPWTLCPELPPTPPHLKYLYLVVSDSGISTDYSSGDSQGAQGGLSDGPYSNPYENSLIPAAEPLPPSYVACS
As to the kind of experiment: Staining of 293T/EPOR/CD131 cells with purified antibodies. It is filed as binding. On the procedure:
as §1

The target in another test is T4, 293T/CD131 cells (Homo sapiens, UniProt P32927).
T4 construct: expressed in transfected cells; host or cells: 293T cells, lentiviral transduction
T4 sequence (P32927 17-897): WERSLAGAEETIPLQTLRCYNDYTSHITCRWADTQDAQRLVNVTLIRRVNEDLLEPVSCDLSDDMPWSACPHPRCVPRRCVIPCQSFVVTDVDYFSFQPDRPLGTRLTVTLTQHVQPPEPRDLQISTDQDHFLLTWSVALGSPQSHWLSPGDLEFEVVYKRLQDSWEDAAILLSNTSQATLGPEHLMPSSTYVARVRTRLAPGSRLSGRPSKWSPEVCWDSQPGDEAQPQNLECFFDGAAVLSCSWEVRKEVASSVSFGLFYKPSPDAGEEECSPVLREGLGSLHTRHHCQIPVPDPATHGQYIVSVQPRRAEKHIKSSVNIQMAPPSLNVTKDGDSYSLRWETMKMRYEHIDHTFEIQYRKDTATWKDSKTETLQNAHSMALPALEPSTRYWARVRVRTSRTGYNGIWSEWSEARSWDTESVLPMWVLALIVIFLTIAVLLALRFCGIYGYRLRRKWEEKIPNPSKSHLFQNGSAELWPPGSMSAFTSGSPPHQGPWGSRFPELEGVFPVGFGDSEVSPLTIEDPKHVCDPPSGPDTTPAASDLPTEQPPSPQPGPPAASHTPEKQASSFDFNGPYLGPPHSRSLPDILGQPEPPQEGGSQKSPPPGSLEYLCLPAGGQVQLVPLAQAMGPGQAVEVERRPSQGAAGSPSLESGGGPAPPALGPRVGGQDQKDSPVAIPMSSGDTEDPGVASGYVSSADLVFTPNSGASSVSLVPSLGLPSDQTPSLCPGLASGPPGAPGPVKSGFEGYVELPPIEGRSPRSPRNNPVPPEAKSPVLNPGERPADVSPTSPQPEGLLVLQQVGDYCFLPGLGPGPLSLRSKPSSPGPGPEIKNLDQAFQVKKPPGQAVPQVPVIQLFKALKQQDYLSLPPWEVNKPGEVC
As to the kind of experiment: Staining of 293T/CD131 cells with purified antibodies. Type of test: binding. On the procedure: as §1

Another test has as its target T5, EPOR (UT-7 cells) (Homo sapiens, UniProt P19235).
T5 construct: endogenous in cells; host or cells: UT-7 human leukemia cells
T5 sequence (P19235 25-508): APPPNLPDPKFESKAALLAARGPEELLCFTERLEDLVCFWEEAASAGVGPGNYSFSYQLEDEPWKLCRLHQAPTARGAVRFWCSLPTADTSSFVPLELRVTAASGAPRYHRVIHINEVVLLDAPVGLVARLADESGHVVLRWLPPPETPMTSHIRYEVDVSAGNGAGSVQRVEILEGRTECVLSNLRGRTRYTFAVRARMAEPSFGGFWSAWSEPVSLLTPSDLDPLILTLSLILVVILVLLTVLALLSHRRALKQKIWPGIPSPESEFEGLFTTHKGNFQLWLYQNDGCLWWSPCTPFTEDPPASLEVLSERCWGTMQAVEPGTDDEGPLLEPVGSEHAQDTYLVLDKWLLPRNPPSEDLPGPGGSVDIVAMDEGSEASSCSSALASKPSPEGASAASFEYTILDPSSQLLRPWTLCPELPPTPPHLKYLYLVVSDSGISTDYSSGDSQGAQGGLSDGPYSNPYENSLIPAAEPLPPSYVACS
As to the kind of experiment: Flow-based phosphorylated Stat5 assay, blocking by anti-EPOR antibodies. It is filed as cell-based. The settings on record: 20 μg/ml antibody; 0.1 μg/ml recombinant human EPO. On the procedure: EPOR activation leads to phosphorylation of Stat5. A flow-based assay on phosphorylated Stat5 was set up to test the blocking activities of anti-EPOR antibodies. The UT-7 cells were cultured without GM-CSF for overnight before the EPO stimulation. 3×10^6 cells/ml were incubated with 20 μg/ml of anti-EPOR for 15 minutes before stimulation with 0.1 μg/ml of recombinant human EPO (Peprotech®, Cat #100-64) for 10 minutes at 37° C. The cells were fixed immediately with fixation buffer (Cytofix™ buffer; BD Biosciences, Cat #554655) and permeabilized with methanol. After washing, cells were stained with PE labeled anti-Stat5 (BD Biosciences, Cat #612567) and subjected to flow cytometry analysis.

B1: EPORab - M41: hybridoma antibody clone, VH/VK in Table 10 (antibody, V domains shown)
VH: QVQLVESGGGLVQPGRSLRLSCAASGFTFDDYAIHWVRQAPGKGLEWVSGISYNSENIGYADSVKGRFTISRDNAKNSLYLQMNSLRSEDTALYYCAKDMFLTWFSSFDYWGQGTLVTVSS
VL: ETKLTQSPGTLSLSPGERTTLSCRASQSISNNYLAWYQQKPGQAPRLLIYRASTRATGIPDRFSGSGSGTDFTLTIRRLEPEDFAVYYCQRYGRSPLTFGGGTKVEIK
As for B1, the “blocking of the EPO/EPOR interaction” value in test [1] was “partial blocking”. Further, the “binding to 293T/EPOR cells” value was “lost most of the binding” with 293T/EPOR cells (0.74 μg/ml purified antibody) and “robust binding activities” in the test with 293T/EPOR cells (20 μg/ml purified antibody). Besides, in the test with 293T/EPOR/CD131 cells, the “peak MFI” value is reported as “around 1500”. Moreover, the “staining of 293T/CD131 cells” value with 293T/CD131 cells was “did not stain”. The “blocking of Stat5 phosphorylation” value with EPOR (UT-7 cells) is listed as “partial blocking”.

Values taken from patent US12637513B2, “Method of treating cancer by administering an inhibitor of erythropoietin receptor activity comprising either erythropoietin receptor or erythropoietin protein” (ImmunEdge, Inc., priority 2022, dated 2026).
